In data set [1] the target is E. coli topoisomerase I (EcTOP1) (Escherichia coli, UniProt P06612 1-865). Kind of data set: X-ray crystallography; 1 mM ZnSO4, pH 6.0; 2.9 A; ssDNA 3' end bound by D5, D7, D8, D9 and R189; Footprinting: 40 mM Tris-HCl (pH not stated), 0.1 mg/ml BSA, 5 mM MgCl2, 37 C, 1 h; crystals: 0.125 M ammonium sulfate, 0.1 M MES pH 6.0, 1 mM ZnSO4, 19% PEG MME 5000, 24 C. The note with it: protein: recombinant; tags: N-terminal His6 removed with TEV protease; label: none in crystal; 3' overhang 9 nt on O29; 20 bp duplex.

A further data set deals with EcTOP1-G116S (Escherichia coli, UniProt P06612 1-865, G116S). Kind of data set: DNase I footprinting; 5 mM MgCl2; partial protection of double-stranded region, both strands; Footprinting: 40 mM Tris-HCl (pH not stated), 0.1 mg/ml BSA, 5 mM MgCl2, 37 C, 1 h; crystals: 0.125 M ammonium sulfate, 0.1 M MES pH 6.0, 1 mM ZnSO4, 19% PEG MME 5000, 24 C. To be noted: protein: recombinant; label: 5' 32P on G-strand or T-strand; duplex with 12-nt unpaired bubble.

B1: O29-O20 partial duplex (mixed)
DNA 1: GCTAAACCTGAAAGATTATGCGATTTGGG
DNA 2: CATAATCTTTCAGGTTTAGC
Take B1: in data set [1], the binding result is listed as “binds”.

B2: DNA bubble substrate (G-strand/T-strand) (mixed)
DNA 1: GCCCTGAAAGATTATGGAATGCGATTAGTTCAAGAGCGTGAGCG
DNA 2: CGCTCACGCTCTTGAAGTAGAGGAAGGACATAATCTTTCAGGGC
B2: the binding result with EcTOP1-G116S is listed as “binds”.

These data come from PMC4678816, “Structural basis for suppression of hypernegative DNA supercoiling by E. coli topoisomerase I”.
